Experimental data reported in patent US20250296971A1, “GASTRIC INHIBITORY PEPTIDE RECEPTOR LIGANDS” (priority 2021, published 2025).
*1 amine or outer side, *2 acyl side, *3 side chain or, on linkers, in order; H or OH if unused. Bridges are numbered along the chain shown (N, C = ends). [ ]: non-standard residue; d: D form. The star is where a group is joined. dE(AGLU) = D-glutamic acid bearing 1-amino-1-deoxy-D-glucitol; Pro(trans-4-NH2) = O=C([C@@H]1C[C@@H](N[*:3])CN1[*:1])[*:2]; DOTA = O=C(O)CN1CCN(CC(=O)O)CCN(CC(=O)*)CCN(CC(=O)O)CC1; 2Lut = 2,6-lutidylidene bridge between two thiols; Trp(5-Cl) = N[C@@H](Cc1c[nH]c2ccc(Cl)cc12)C(=O)O; Pyridine(2,6-diCH2) = c1cc(C[*:1])nc(C[*:2])c1; APAc = 4-amino-1-carboxymethylpiperidine; Glutaryl = O=C(CCCC(=O)[*:2])[*:1]; AGLU = 1-amino-1-deoxy-D-glucitol; Hyp = O=C(O)[C@@H]1C[C@@H](O)CN1; dGlu(AGLU) = not defined here; glu(AGLU) = not defined here; hSer = N[C@@H](CCO)C(=O)O; Api = NC1(C(=O)O)CCNCC1

Columns and labels:
[1] = molecular target: biotinylated extracellular domain of the human GIP receptor (bioGIPR) (human) (UniProt P48546); assay: SPR single cycle kinetics, bioGIPR captured on chip; category B: pKD 8.1-9.0
[2] = molecular target: human Gastric Inhibitory Peptide Receptor (human) (UniProt P48546); assay: FACS competition with GIP-057 on CHO-K1-hGIPR cells; pIC50 category B: 7.1-8.0
[3] = molecular target: biotinylated extracellular domain of the human GIP receptor (bioGIPR) (human) (UniProt P48546); assay: SPR single cycle kinetics, bioGIPR captured on chip; category D: t1/2 <2.0 min
[4] = molecular target: human gastric inhibitory polypeptide receptor (human GIPR) (human) (UniProt P48546); assay: radioligand binding assay, 111In-labeled compound on CHO cells expressing GIPR, 6 h 37 °C; pKD category A = pKD > 9.5
[5] = molecular target: dog GIPR (dog); assay: radioligand binding assay, 111In-labeled compound on CHO-VGT cells expressing dog GIPR, 6 h 37 °C; pKD category A = pKD > 9.5
[6] = molecular target: mouse GIPR (mouse) (UniProt Q0P543); assay: radioligand binding assay, 111In-labeled compound on CHO-VGT cells expressing mouse GIPR, 6 h 37 °C; pKD category C = pKD < 9.0
[7] = molecular target: rat GIPR (rat) (UniProt P43219); assay: radioligand binding assay, 111In-labeled compound on CHO-VGT cells expressing rat GIPR, 6 h 37 °C; pKD category B = pKD between 9.0 and 9.5
Chain of rat GIPR (rat) (P43219 19-455): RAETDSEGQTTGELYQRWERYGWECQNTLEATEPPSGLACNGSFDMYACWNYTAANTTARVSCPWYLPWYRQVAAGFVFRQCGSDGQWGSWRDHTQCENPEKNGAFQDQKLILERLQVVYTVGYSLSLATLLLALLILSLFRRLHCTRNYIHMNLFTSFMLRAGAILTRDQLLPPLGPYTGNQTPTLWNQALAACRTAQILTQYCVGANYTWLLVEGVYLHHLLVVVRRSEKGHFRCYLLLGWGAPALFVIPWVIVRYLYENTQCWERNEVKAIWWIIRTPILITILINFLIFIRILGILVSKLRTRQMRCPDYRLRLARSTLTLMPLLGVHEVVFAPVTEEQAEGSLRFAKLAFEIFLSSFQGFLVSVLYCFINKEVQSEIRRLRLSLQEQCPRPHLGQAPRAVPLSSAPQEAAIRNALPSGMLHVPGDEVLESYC

Chain of biotinylated extracellular domain of the human GIP receptor (bioGIPR) (human) (P48546 24-138 limits assumed): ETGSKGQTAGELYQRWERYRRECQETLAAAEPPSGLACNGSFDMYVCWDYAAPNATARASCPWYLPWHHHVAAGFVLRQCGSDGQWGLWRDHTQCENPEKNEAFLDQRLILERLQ
Chain of human Gastric Inhibitory Peptide Receptor (human) (P48546 22-466 limits assumed): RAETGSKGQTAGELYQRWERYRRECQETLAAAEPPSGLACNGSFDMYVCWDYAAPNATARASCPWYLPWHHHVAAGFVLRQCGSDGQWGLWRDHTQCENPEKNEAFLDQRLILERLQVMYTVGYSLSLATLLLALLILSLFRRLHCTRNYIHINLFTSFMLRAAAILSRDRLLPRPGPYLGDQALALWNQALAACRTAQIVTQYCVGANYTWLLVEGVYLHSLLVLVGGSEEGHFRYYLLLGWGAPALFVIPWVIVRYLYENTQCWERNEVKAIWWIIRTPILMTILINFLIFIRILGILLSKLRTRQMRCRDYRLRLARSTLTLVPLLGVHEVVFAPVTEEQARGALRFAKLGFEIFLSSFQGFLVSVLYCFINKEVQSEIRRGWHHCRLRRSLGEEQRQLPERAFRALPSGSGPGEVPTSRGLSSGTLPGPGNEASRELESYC
Chain of human gastric inhibitory polypeptide receptor (human GIPR) (human) (P48546 22-466 limits assumed): as above
Chain of mouse GIPR (mouse) (Q0P543 19-460): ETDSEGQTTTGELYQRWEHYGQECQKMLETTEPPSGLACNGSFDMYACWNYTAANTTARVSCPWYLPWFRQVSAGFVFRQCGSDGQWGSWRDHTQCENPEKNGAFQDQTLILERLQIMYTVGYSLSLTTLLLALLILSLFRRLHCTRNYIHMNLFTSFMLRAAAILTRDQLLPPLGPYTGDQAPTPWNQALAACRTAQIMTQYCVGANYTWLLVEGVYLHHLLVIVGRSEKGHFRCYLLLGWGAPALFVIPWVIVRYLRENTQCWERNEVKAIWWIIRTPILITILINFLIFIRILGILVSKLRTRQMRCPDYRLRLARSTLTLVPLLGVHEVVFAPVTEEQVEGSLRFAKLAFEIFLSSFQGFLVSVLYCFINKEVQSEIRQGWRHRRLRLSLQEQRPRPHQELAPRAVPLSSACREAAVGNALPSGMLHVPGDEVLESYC
Chain of dog GIPR (dog) (chain, as listed by the source limits assumed, form in doubt): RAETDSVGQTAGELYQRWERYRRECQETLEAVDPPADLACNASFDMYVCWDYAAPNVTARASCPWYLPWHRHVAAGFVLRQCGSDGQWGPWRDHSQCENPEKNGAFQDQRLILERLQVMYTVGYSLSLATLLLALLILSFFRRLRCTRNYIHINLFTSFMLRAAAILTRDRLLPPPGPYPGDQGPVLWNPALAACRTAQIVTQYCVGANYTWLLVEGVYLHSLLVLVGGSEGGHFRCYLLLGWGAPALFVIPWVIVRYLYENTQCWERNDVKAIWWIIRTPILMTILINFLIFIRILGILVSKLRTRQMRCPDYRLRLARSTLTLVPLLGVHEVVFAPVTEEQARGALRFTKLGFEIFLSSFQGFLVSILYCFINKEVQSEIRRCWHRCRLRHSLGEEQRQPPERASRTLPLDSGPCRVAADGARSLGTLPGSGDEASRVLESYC

Binder	pKD [1] [pkd]	pIC50 [2] [pic50]	t1/2 [3] [min]	pKD [4] [pkd]	pKD [5] [pkd]	pKD [6] [pkd]	pKD [7] [pkd]
SWXXXXCXLIC (AGLU-Glutar-APAc; 5Clw; Tap(AGLU-Glutar); Hse; D-leu; Apc(DOTA); 2Lut bridge Cys-Cys; APAc; D-glu(AGLU); C-term NH2)	8.1 to 9	7.1 to 8	< 2				
{AGLU-Glutaryl-APAc}-SW[Trp(5-Cl)][Pro(trans-4-NH2)][hSer][dL]C[Api](DOTA)LIC-{APAc-glu(AGLU)-NH2} (linker 7-11 via 2Lut; reading uncertain) [AGLU-Glutar-APAc-Ser-Trp-5Clw-Tap-Hse-leu-[Cys(2Lut)-Apc(DOTA)-Leu-Ile-Cys]-APAc-glu(AGLU)-NH2]	8.1 to 9	7.1 to 8	< 2				
{AGLU-Glutaryl-APAc}-[hSer]W[Trp(5-Cl)][Hyp]E[dL]C[Api](DOTA)LIC-{APAc-dE(AGLU)-NH2} (linker 7-11 via Pyridine(2,6-diCH2)) [AGLU-Glutar-APAc-Hse-Trp-5Clw-Hyp-Glu-leu-[Cys(2Lut)-Apc(DOTA)-Leu-Ile-Cys]-APAc-glu(AGLU)-NH2]	8.1 to 9	7.1 to 8	< 2				
{AGLU-Glutaryl}-DW[Trp(5-Cl)][Pro(trans-4-NH2)]E[dL]C[Api](DOTA)LIC-{APAc-dE(AGLU)-NH2} (linker 7-11 via Pyridine(2,6-diCH2); also: DOTA complexed with 111In)				> 9.5	> 9.5	< 9	9 to 9.5
{AGLU-Glutaryl}-DW[Trp(5-Cl)][Hyp]E[dL]C[Api](DOTA)LIC-{APAc-dGlu(AGLU)-NH2} (linker 7-11 via Pyridine(2,6-diCH2); reading uncertain; also: DOTA complexed with 111In)				> 9.5			
